The text below walks through data of publication doi:10.1101/2020.02.12.946293 (bioRxiv, 2020).

In this test the target is hMLH1-hMLH3 (human, UniProt P40692;Q9UHC1). Put plainly: pull-down.
Sequence of hMLH1-hMLH3 (P40692 whole entry, chain 1 of 2): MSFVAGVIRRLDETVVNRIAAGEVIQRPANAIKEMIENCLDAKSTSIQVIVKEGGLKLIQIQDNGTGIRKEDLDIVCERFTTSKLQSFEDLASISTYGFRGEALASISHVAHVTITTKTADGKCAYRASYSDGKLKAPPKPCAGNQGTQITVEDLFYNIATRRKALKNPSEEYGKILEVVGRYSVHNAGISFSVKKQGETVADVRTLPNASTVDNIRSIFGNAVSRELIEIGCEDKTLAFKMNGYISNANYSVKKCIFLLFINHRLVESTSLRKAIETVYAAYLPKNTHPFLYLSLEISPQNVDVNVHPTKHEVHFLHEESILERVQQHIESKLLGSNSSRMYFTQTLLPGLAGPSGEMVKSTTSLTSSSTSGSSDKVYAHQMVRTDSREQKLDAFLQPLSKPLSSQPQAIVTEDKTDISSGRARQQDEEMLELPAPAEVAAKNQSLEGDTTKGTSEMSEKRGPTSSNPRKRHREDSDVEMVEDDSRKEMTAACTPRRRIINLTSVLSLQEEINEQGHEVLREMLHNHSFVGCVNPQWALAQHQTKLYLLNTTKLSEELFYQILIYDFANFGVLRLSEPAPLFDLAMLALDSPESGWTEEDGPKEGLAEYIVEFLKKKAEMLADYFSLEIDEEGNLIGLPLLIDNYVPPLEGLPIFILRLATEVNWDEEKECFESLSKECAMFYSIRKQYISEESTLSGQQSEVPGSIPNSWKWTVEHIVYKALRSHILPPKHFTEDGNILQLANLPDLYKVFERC
Sequence of hMLH1-hMLH3 (Q9UHC1 whole entry, chain 2 of 2): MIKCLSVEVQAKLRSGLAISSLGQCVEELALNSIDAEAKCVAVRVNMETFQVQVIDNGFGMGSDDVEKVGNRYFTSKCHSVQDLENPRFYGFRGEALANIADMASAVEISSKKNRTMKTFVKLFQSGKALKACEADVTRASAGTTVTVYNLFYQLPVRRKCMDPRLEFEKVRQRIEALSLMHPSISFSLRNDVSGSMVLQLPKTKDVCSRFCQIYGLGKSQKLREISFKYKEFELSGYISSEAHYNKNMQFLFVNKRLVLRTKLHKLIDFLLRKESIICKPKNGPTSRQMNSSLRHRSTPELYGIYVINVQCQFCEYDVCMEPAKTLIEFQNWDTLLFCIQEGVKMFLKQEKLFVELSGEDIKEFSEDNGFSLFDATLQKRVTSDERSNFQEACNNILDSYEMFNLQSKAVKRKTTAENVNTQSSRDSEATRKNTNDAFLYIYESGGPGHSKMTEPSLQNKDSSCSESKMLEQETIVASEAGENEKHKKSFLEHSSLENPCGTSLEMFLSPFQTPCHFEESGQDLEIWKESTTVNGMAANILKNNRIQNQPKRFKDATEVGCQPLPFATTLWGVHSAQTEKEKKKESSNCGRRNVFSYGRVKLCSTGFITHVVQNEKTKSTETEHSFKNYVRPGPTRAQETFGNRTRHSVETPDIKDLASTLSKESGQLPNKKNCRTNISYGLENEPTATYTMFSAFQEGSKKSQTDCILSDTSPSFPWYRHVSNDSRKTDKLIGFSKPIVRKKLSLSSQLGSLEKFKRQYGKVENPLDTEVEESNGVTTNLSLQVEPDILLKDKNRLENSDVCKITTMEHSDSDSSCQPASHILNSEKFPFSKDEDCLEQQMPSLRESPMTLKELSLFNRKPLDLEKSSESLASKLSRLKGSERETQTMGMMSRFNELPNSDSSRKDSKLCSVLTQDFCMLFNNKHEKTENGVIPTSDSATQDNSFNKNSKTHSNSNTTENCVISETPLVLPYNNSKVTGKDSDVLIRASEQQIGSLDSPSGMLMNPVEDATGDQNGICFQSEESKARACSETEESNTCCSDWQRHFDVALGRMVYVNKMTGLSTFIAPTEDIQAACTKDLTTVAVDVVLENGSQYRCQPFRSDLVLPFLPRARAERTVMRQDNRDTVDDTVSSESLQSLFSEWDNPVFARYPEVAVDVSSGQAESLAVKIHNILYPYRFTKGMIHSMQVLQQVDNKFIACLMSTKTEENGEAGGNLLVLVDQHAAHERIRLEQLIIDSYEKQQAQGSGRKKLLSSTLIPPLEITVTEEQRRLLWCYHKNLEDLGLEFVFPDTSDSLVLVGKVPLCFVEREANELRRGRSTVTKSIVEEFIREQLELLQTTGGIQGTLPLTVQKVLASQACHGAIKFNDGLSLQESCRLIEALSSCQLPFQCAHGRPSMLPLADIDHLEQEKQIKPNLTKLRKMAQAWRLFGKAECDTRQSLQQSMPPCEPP

B1: hEXO1(D173A) (enzyme)
chain: MGIQGLLQFIKEASEPIHVRKYKGQVVAVDTYCWLHKGAIACAEKLAKGEPTDRYVGFCMKFVNMLLSHGIKPILVFDGCTLPSKKEVERSRRERRQANLLKGKQLLREGKVSEARECFTRSINITHAMAHKVIKAARSQGVDCLVAPYEADAQLAYLNKAGIVQAIITEDSALLAFGCKKVILKMDQFGNGLEIDQARLGMCRQLGDVFTEEKFRYMCILSGCDYLSSLRGIGLAKACKVLRLANNPDIVKVIKKIGHYLKMNITVPEDYINGFIRANNTFLYQLVFDPIKRKLIPLNAYEDDVDPETLSYAGQYVDDSIALQIALGNKDINTFEQIDDYNPDTAMPAHSRSHSWDDKTCQKSANVSSIWHRNYSPRPESGTVSDAPQLKENPSTVGVERVISTKGLNLPRKSSIVKRPRSAELSEDDLLSQYSLSFTKKTKKNSSEGNKSLSFSEVFVPDLVNGPTNKKSVSTPPRTRNKFATFLQRKNEESGAVVVPGTRSRFFCSSDSTDCVSNKVSIQPLDETAVTDKENNLHESEYGDQEGKRLVDTDVARNSSDDIPNNHIPGDHIPDKATVFTDEESYSFESSKFTRTISPPTLGTLRSCFSWSGGLGDFSRTPSPSPSTALQQFRRKSDSPTSLPENNMSDVSQLKSEESSDDESHPLREEACSSQSQESGEFSLQSSNASKLSQCSSKDSDSEESDCNIKLLDSQSDQTSKLRLSHFSKKDTPLRNKVPGLYKSSSADSLSTTKIKPLGPARASGLSKKPASIQKRKHHNAENKPGLQIKLNELWKNFGFKKDSEKLPPCKKPLSPVRDNIQLTPEAEEDIFNKPECGRVQRAIFQ
For the molecule B1, the binding result is reported as “binds”.
